Tests used:
Test in all cases: TAP pull-down interactome analysis (LC-MS/MS)
Details in all cases: MCF-7 cells; read off a plot
CCT2 = target: CCT2
CCT3 = target: CCT3
CCT5 = target: CCT5
ERP29 = target: ERP29
GANAB = target: GANAB
HSP90AB1 = target: HSP90AB1
HSPA2 = target: HSPA2
HSPA9 = target: HSPA9
PDIA4 = target: PDIA4
PSMB6 = target: PSMB6
PSMD2 = target: PSMD2
RPN2 = target: RPN2
SERPINH1 = target: SERPINH1
TCP1 = target: TCP1
UBA1 = target: UBA1
UCHL1 = target: UCHL1
CCT6A = target: CCT6A

Row | Substance | other: log2 relative change (CCT2) [log2] | other: log2 relative change (CCT3) [log2] | other: log2 relative change (CCT5) [log2] | other: log2 relative change (ERP29) [log2] | other: log2 relative change (GANAB) [log2] | other: log2 relative change (HSP90AB1) [log2] | other: log2 relative change (HSPA2) [log2] | other: log2 relative change (HSPA9) [log2] | other: log2 relative change (PDIA4) [log2] | other: log2 relative change (PSMB6) [log2] | other: log2 relative change (PSMD2) [log2] | other: log2 relative change (RPN2) [log2] | other: log2 relative change (SERPINH1) [log2] | other: log2 relative change (TCP1) [log2] | other: log2 relative change (UBA1) [log2] | other: log2 relative change (UCHL1) [log2] | other: log2 relative change (CCT6A) [log2]
1 | TAP–Bag-1S (from UniProt Q99933-4) R193D | -0.05 | 1 | -0.45 | 1.5 | -0.15 | -0.65 | 0.77 | -0.07 | -0.65 | -0.85 | -1.1 | -1.5 | -0.12 | 0.5 | 0.37 | -0.77 | –
2 | TAP–Bag-1S (from UniProt Q99933-4) R161D | -1.6 | -1.4 | 2 | – | -1.8 | -1.9 | – | -0.32 | -0.7 | -2.3 | -2.1 | – | -1.3 | -0.52 | -2 | – | –
3 | TAP–Bag-1S (from UniProt Q99933-4) R162E | -1.5 | -1.2 | -0.35 | – | -0.52 | -1.7 | – | -1.7 | -1.8 | -2.3 | – | -2.1 | -1.1 | -1.9 | -0.47 | – | -2
4 | TAP–Bag-1S (from UniProt Q99933-4) I103K | -0.82 | – | -1.5 | -2.3 | -0.47 | -1.2 | 0.7 | -0.32 | -0.8 | -0.9 | -2 | -1.9 | -0.85 | -1.7 | -0.2 | – | -1.6
